Data reported in US7745587 (DYAX, dated 2010).

What was measured:
MMP-24 = MMP-24 (human, UniProt Q9Y5R2 156-328, limits assumed); experiment: cell-based or functional assay
human MMP-14 [1] = target: T1, human MMP-14 (human, UniProt P50281 112-541, limits assumed); experiment: cell-based or functional assay
human MMP-14 [2] = target: T1, human MMP-14; experiment: enzymatic inhibition assay, 2 nM MMP-14, 18 uM substrate Mca-Pro-Leu-Ala-Cys(Mob)-Trp-Ala-Arg-Dap(Dnp)-NH2; rate against [IgG] 0-50 nM
Protocol: (§1) K_i studies were performed using an enzymatic assay at substrate [Mca-Pro-Leu-Ala-Cys(Mob)-Trp-Ala-Arg-Dap(Dnp)-NH_2] concentrations of 10 μM, 14 μM and 18 μM. […] The concentration of MMP-14 was 2 nM.

human MMP-14 [3] = target: T1, human MMP-14; experiment: enzymatic inhibition assay, 2 nM MMP-14, 10 uM substrate Mca-Pro-Leu-Ala-Cys(Mob)-Trp-Ala-Arg-Dap(Dnp)-NH2; rate against [IgG] 0-50 nM
Protocol: as §1

human MMP-14 [4] = target: T1, human MMP-14; experiment: enzymatic assay, IgG, 2 nM MMP-14, peptide substrate at 10, 14, 18 µM; highest Ki measured
Protocol: as §1

human MMP-14 [5] = target: T1, human MMP-14; experiment: enzymatic inhibition assay, 2 nM MMP-14, 14 uM substrate Mca-Pro-Leu-Ala-Cys(Mob)-Trp-Ala-Arg-Dap(Dnp)-NH2; rate against [IgG] 0-50 nM
Protocol: as §1

human MMP-14 [6] = target: T1, human MMP-14; experiment: enzymatic inhibition assay against 2 pM hMMP-14; rate (dF/min) against [I] 0-100 nM
[7] = target: mouse MMP-14 in arthritic knee joints of C57Bl6 mice (mouse, UniProt P53690 112-582); experiment: immunohistochemistry of mouse joints, acute SCW-induced arthritis
human MMP-14 [8] = target: T1, human MMP-14; experiment: enzymatic inhibition assay against 2 pM hMMP-14; rate (dF/min) against [I] 0-50 nM
human MMP-14 [9] = target: T1, human MMP-14; experiment: enzymatic inhibition assay against 2 pM hMMP-14; rate (dF/min) against [I] 0-100 nM; value taken from the line under the panel marked Parental, not from its inset table

Sequence of MMP-24 (Q9Y5R2 156-328 limits assumed): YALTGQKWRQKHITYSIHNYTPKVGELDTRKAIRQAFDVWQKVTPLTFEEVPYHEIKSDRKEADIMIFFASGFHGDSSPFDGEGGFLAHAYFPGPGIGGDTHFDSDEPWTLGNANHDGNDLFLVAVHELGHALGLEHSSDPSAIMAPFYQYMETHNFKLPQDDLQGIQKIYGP

B1: M0043-G02 Fab (Fab, V domains shown)
VH: EVQLLESGGGLVQPGGSLRLSCAASGFTFSWYPMFWVRQAPGKGLEWVSGIYSSGGPTDYADSVKGRFTISRDNSKNTLYLQMNSLRAEDTAVYYCAKDTLGRYYDFWSGYSYGMDVWGQGTTVTVSS
VL: DIQMTQSPGTLSLSPGERATLSCRASQSVSSSYLAWYQQKPGQAPRLLIYGASSRATGIPDRFSGSGSGTDFTLTISRLEPEDFAVYYCQSGVTFGGGTKVEIK
MMP-24 activity, 100 nM final Fab with 5 nM MMP-24 (MMP-24): 74 % inhibition | IC50 of MMP-14 inhibition (MMP-14 at 2 pM), Fab (human MMP-14 [1]): 9.3 nM

B2: M0043-G02 IgG (antibody, V domains shown)
VH: EVQLLESGGGLVQPGGSLRLSCAASGFTFSWYPMFWVRQAPGKGLEWVSGIYSSGGPTDYADSVKGRFTISRDNSKNTLYLQMNSLRAEDTAVYYCAKDTLGRYYDFWSGYSYGMDVWGQGTTVTVSS
VL: DIQMTQSPGTLSLSPGERATLSCRASQSVSSSYLAWYQQKPGQAPRLLIYGASSRATGIPDRFSGSGSGTDFTLTISRLEPEDFAVYYCQSGVTFGGGTKVEIK
notes: IgG of the Fab
Ki (human MMP-14 [2]): 1.1 nM | Ki (human MMP-14 [3]): 0.7 nM | Ki (human MMP-14 [4]): 1.2 nM | IC50 of MMP-14 inhibition (MMP-14 at 2 pM), IgG (human MMP-14 [1]): 0.3 nM

B3: M0037-C09 Fab (Fab, V domains shown)
VH: EVQLLESGGGLVQPGGSLRLSCAASGFTFSHYEMFWVRQAPGKGLEWVSSISPSGGQTHYADSVKGRFTISRDNSKNTLYLQMNSLRAEDTAVYYCATDRTYYDFWSGYGPLWYWGQGTLVTVSS
VL: DIQMTQSPLSLPVTLGESASVSCRSSQSLLHENGHNYLDWYLQKPGQSPQLLIYLGSNRASGVPDRFSGSGSGTDFTLKISRVEAEDVGVYYCMQSLKTPPTFGPGTKVEIK
MMP-24 activity, 100 nM final Fab with 5 nM MMP-24 (MMP-24): 72 % inhibition | IC50 of MMP-14 inhibition (MMP-14 at 2 pM), Fab (human MMP-14 [1]): 11.5 nM

B4: M0037-C09 IgG (antibody, V domains shown)
VH: EVQLLESGGGLVQPGGSLRLSCAASGFTFSHYEMFWVRQAPGKGLEWVSSISPSGGQTHYADSVKGRFTISRDNSKNTLYLQMNSLRAEDTAVYYCATDRTYYDFWSGYGPLWYWGQGTLVTVSS
VL: DIQMTQSPLSLPVTLGESASVSCRSSQSLLHENGHNYLDWYLQKPGQSPQLLIYLGSNRASGVPDRFSGSGSGTDFTLKISRVEAEDVGVYYCMQSLKTPPTFGPGTKVEIK
notes: IgG of the Fab; also called M037-C09
Ki (human MMP-14 [3]): 7.2 nM | Ki (human MMP-14 [4]): 8.6 nM | Ki (human MMP-14 [5]): 6.3 nM | IC50 of MMP-14 inhibition (MMP-14 at 2 pM), IgG (human MMP-14 [1]): 4.2 nM

B5: M0037-D01 IgG (antibody, V domains shown)
VH: EVQLLESGGGLVQPGGSLRLSCAASGFTFSMYMMIWVRQAPGKGLEWVSSIYPSGGNTMYADSVKGRFTISRDNSKNTLYLQMNSLRAEDTAVYYCATGVLRYFDWDAGSGMDVWGQGTTVTVSS
VL: DIQMTQSPSSLSASVGDRVTITCRASQGIRNDLGWYQQKPGKAPKRLIYVASSLQSGVPSRFSGSGSGTEFTLTISSLQPEDFATYYCLQHNSYPWTFGQGTKVEIK
notes: IgG of the Fab
Ki (human MMP-14 [2]): 2 nM | Ki (human MMP-14 [4]): 2.9 nM | Ki (human MMP-14 [5]): 1.7 nM | IC50 of MMP-14 inhibition (MMP-14 at 2 pM), IgG (human MMP-14 [1]): 1.7 nM

B6: M0038-F01 IgG (antibody, V domains shown)
VH: EVQLLESGGGLVQPGGSLRLSCAASGFTFSLYSMNWVRQAPGKGLEWVSSIYSSGGSTLYADSVKGRFTISRDNSKNTLYLQMNSLRAEDTAVYYCARGRAFDIWGQGTMVTVSS
VL: DIQMTQSPSSLSAFVGDKVTITCRASQSVGTYLNWYQQKAGKAPELLIYATSNLRSGVPSRFSGSGSGTDFTLTINTLQPEDFATYYCQQSYSIPRFTFGPGTKVDIK
notes: IgG of the Fab
Ki (human MMP-14 [3]): 0.6 nM | Ki (human MMP-14 [4]): 1.2 nM | IC50 (human MMP-14 [6]): 8.3 nM | Ki (human MMP-14 [5]): 0.9 nM | IC50 of MMP-14 inhibition (MMP-14 at 2 pM), IgG (human MMP-14 [1]): 2 nM | binding result [7]: binds

B7: M0038-F01 germline (antibody, human IgG1, kappa, V domains shown)
VH: EVQLLESGGGLVQPGGSLRLSCAASGFTFSLYSMNWVRQAPGKGLEWVSSIYSSGGSTLYADSVKGRFTISRDNSKNTLYLQMNSLRAEDTAVYYCARGRAFDIWGQGTMVTVSS
VL: DIQMTQSPSSLSASVGDRVTITCRASQSVGTYLNWYQQKPGKAPKLLIYATSNLRSGVPSRFSGSGSGTDFTLTISSLQPEDFATYYCQQSYSIPRFTFGPGTKVDIKR
notes: Full chains; the ranges 20-464 and 20-234 come from claims 16, 18 and 20
IC50 (human MMP-14 [8]): 5.13 nM

B8: M0033-H07 IgG (antibody, V domains shown)
VH: EVQLLESGGGLVQPGGSLRLSCAASGFTFSVYGMVWVRQAPGKGLEWVSVISSSGGSTWYADSVKGRFTISRDNSKNTLYLQMNSLRAEDTALYYCARPFSRRYGVFDYWGQGTLVTVSS
VL: DIQMTQSPSSLSASVGDRVTITCRASQGIRNFLAWYQQKPGKVPKLLVFGASALQSGVPSRFSGSGSGTDFTLTISGLQPEDVATYYCQKYNGVPLTFGGGTKVEIK
notes: IgG of the Fab
Ki (human MMP-14 [3]): 3.3 nM | Ki (human MMP-14 [4]): 4 nM | Ki (human MMP-14 [5]): 2.7 nM | IC50 of MMP-14 inhibition (MMP-14 at 2 pM), IgG (human MMP-14 [1]): 5.1 nM | IC50 (human MMP-14 [9]): 12.2 nM

B9: M0040-A11 Fab (Fab, V domains shown)
VH: EVQLLESGGGLVQPGGSLRLSCAASGFTFSHYVMFWVRQAPGKGLEWVSRIVPSGGATMYADSVKGRFTISRDNSKNTLYLQMNSLRAEDTAVYYCARDRPLYDSSGYVDYWGQGTLVTVSS
VL: QSALTQPPSASGSPGQSVTISCTGTSSDVGAYNYVSWYQQHPDKAPKLIIYNVNERPSGVPDRFSGSKSGNTASLTVSGLQAEDEADYYCTSYAGSNKIGVSGTGTKVTVL
MMP-24 activity, 100 nM final Fab with 5 nM MMP-24 (MMP-24): 58 % inhibition | IC50 of MMP-14 inhibition (MMP-14 at 2 pM), Fab (human MMP-14 [1]): 23.2 nM

B10: M0031-C02 Fab (Fab, V domains shown)
VH: EVQLLESGGGLVQPGGSLRLSCAASGFTFSPYPMGWVRQAPGKGLEWVSSIVSSGGLTLYADSVKGRFTISRDNSKNTLYLQMNSLRAEDTAVYYCARGGRLYDILTGQGAPFDYWGQGTLVTVSS
VL: DIQMTQSPLSLPVTPGEPASISCRSSQSLLHSNGYYYLDWYLQKPGQSPQLLIYLGSYRASGVPDRFSGSGSGTDFTLKISSVEAEDVGVYYCMQALQTPLTFGGGTRVDIK
MMP-24 activity, 100 nM final Fab with 5 nM MMP-24 (MMP-24): 54 % inhibition | IC50 of MMP-14 inhibition (MMP-14 at 2 pM), Fab (human MMP-14 [1]): 56 nM
